Assay results reported in IntAct's records for PubMed 12732850.

B1: Humanin (Homo sapiens), Q8IVG9 (parent)
chain: MAPRGFSCLLLLTSEIDLPVKRRA

Variants of: B1
Details: with bax_human BAX

Row | Variant | effect of a mutation on the interaction
1 | C8P | disrupting interaction strength
